Measurements from IntAct's records for PubMed 19141287.

B1: Mitotic checkpoint serine/threonine-protein kinase BUB1 (Homo sapiens), O43683 (parent)
chain: MDTPENVLQMLEAHMQSYKGNDPLGEWERYIQWVEENFPENKEYLITLLEHLMKEFLDKKKYHNDPRFISYCLKFAEYNSDLHQFFEFLYNHGIGTLSSPLYIAWAGHLEAQGELQHASAVLQRGIQNQAEPREFLQQQYRLFQTRLTETHLPAQARTSEPLHNVQVLNQMITSKSNPGNNMACISKNQGSELSGVISSACDKESNMERRVITISKSEYSVHSSLASKVDVEQVVMYCKEKLIRGESEFSFEELRAQKYNQRRKHEQWVNEDRHYMKRKEANAFEEQLLKQKMDELHKKLHQVVETSHEDLPASQERSEVNPARMGPSVGSQQELRAPCLPVTYQQTPVNMEKNPREAPPVVPPLANAISAALVSPATSQSIAPPVPLKAQTVTDSMFAVASKDAGCVNKSTHEFKPQSGAEIKEGCETHKVANTSSFHTTPNTSLGMVQATPSKVQPSPTVHTKEALGFIMNMFQAPTLPDISDDKDEWQSLDQNEDAFEAQFQKNVRSSGAWGVNKIISSLSSAFHVFEDGNKENYGLPQPKNKPTGARTFGERSVSRLPSKPKEEVPHAEEFLDDSTVWGIRCNKTLAPSPKSPGDFTSAAQLASTPFHKLPVESVHILEDKENVVAKQCTQATLDSCEENMVVPSRDGKFSPIQEKSPKQALSSHMYSASLLRLSQPAAGGVLTCEAELGVEACRLTDTDAAIAEDPPDAIAGLQAEWMQMSSLGTVDAPNFIVGNPWDDKLIFKLLSGLSKPVSSYPNTFEWQCKLPAIKPKTEFQLGSKLVYVHHLLGEGAFAQVYEATQGDLNDAKNKQKFVLKVQKPANPWEFYIGTQLMERLKPSMQHMFMKFYSAHLFQNGSVLVGELYSYGTLLNAINLYKNTPEKVMPQGLVISFAMRMLYMIEQVHDCEIIHGDIKPDNFILGNGFLEQDDEDDLSAGLALIDLGQSIDMKLFPKGTIFTAKCETSGFQCVEMLSNKPWNYQIDYFGVAATVYCMLFGTYMKVKNEGGECKPEGLFRRLPHLDMWNEFFHVMLNIPDCHHLPSLDLLRQKLKKVFQQHYTNKIRALRNRLIVLLLECKRSRK

Variants of: B1
Settings: with KNL1, Q8NG31-2
KNL1, Q8NG31-2, sequence (Q8NG31 other isoform, or with tags, fused parts or gaps): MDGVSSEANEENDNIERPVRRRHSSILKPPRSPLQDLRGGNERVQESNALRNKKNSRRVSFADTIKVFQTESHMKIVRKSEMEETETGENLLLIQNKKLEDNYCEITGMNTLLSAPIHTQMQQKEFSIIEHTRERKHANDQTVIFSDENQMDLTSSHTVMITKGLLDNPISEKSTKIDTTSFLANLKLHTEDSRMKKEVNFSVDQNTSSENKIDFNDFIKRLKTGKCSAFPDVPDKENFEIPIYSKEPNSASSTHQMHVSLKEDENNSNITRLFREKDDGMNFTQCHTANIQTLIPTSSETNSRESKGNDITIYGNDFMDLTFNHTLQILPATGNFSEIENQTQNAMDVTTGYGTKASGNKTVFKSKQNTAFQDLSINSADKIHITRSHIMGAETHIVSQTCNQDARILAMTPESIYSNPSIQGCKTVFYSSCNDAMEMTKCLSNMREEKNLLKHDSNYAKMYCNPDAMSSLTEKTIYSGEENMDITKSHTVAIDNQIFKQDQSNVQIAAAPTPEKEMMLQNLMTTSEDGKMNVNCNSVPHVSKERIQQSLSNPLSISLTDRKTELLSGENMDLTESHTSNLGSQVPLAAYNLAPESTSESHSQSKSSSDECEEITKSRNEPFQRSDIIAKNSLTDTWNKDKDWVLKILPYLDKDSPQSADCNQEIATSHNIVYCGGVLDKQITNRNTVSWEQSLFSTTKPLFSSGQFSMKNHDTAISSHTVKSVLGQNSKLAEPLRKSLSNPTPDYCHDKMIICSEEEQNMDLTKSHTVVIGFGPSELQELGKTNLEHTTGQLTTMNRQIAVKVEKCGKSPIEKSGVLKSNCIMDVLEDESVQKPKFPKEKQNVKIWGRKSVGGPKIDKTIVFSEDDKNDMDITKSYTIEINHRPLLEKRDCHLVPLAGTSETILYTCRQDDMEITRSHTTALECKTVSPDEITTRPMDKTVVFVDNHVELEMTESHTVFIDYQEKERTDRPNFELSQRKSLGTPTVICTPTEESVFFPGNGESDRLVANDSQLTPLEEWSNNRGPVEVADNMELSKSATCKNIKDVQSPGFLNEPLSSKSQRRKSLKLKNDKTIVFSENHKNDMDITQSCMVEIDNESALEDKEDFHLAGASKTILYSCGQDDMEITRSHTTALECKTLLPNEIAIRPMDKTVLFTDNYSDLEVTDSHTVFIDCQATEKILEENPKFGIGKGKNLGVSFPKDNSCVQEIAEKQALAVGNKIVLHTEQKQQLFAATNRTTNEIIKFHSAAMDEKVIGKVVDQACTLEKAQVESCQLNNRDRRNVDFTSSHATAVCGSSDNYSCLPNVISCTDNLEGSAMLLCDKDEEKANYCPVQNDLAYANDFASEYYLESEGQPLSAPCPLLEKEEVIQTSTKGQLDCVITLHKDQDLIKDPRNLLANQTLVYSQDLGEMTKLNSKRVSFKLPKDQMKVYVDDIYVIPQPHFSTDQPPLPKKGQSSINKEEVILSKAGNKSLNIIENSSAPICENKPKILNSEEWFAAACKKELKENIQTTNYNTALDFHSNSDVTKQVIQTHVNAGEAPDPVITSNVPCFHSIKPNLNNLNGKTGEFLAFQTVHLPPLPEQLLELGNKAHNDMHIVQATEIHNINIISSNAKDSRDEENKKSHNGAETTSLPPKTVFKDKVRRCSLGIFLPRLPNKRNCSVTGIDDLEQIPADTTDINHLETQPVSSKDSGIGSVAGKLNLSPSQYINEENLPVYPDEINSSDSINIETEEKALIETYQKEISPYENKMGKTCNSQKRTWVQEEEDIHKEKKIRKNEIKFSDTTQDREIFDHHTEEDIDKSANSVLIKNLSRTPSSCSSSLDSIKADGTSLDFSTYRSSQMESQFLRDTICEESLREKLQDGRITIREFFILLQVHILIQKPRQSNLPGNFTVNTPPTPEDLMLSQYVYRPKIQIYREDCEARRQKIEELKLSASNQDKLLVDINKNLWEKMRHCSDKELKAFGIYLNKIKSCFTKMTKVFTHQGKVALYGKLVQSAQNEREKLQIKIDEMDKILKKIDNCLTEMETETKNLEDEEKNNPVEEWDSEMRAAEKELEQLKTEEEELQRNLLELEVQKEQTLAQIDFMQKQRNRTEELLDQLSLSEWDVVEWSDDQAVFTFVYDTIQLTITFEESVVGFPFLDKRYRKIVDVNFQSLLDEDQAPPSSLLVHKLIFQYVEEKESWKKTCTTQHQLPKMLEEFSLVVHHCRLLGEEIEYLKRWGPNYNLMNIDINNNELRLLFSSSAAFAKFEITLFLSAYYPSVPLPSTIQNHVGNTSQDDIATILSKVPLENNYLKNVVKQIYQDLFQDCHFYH

Variant | effect of a mutation on the interaction
G93A;G95A | disrupting interaction
G20S;N21Q;D22A | disrupting interaction
G93A;I94G;G95L | disrupting interaction
D65G | disrupting interaction
L45G;L49G | disrupting interaction
